Experimental data published in article PMC3266742 (Molecular Cell, 2010).

Target: ubiquitin (mono-Ub), untagged, purified (UniProt P0CG47 1-76)
Experiment: NMR titration

B1: 6xHis-tagged Doa1 β-Prp (domain or fragment, S. cerevisiae)
chain: GYQLSATLKGHDQDVRDVVAVDDSKVASVSRDGTVRLWSKDDQWLGTVVYTGQGFLNSVCYDSEKELLLFGGKDTMINGVPLFATSGEDPLYTLIGHQGNVCSLSFQDGVVISGSWDKTAKVWKEGSLVYNLQAHNASVWDAKVVSFSENKFLTASADKTIKLWQNDKVIKTFSGIHNDVVRHLAVVDDGHFISCSNDGLIKLVDMHTGDVLRTYEGHESFVYCIKLLPNGDIVSCGEDRTVRIWSKENGSLKQVITLPAISIWSVDCMSNGDIIVGSSDNLVRIFSQEKSRWASEDEI
B1 was tested, and the Kd was 224 µM.
